The nature of the data set: label from the status in PepcDB records.
For the sequence “MRFIITLFLILQLTTLAFSAHSRDKIGLVLSGGGAKGSAHIGVLKVLEQHNIPIDYVVGTSIGAYVGGMYALGYEVSEIEAIMLGMPWDESYSDFIPRESLAYDKKQHRDRYNISIRLGYSDGEFKVPHGLLLGQSAYQILQRSTDTVRSFDSFDDLAIPYRAVASDIATAKMVVLDSGSINEAMKASAAVPGIVAAVEIDGKTLVDGGITNNMPIDVIKAMGADIVIAIDIGSPLAEQSELTSTVSVLNQLSTILTNNTSLAQKALLTDKDILLRPAIDKLSTTDWSVMPEALKLGEQEAQAQSQALMKLAISDVDYQAYKNQKKLKAKKWFDALPRHITKIKINNNSKVENDIIEKVFAVELGKKLTKEALDLAINRVYALDKFEQVTVEFDDSPEGRIITLTTQAKSWGPNYFDFGFNLKTDFSDQSITSINMSYLMTNVSMNGGRWLNELELGWESLLASEFYQPLDHSHDIYSRARVSFAQDKWEKTSFREELRNEYYQATLALGYDYSFKGIIELGVIAETGDLSLDKPGTDDFDYDSYGSFITFGYDTLDSINFPTNGNKLLIEVKWLKDEYSPQLSDVEKDTATTFALDWRGAIGIRGHTFVGIASFATIDNESDFSVHVTELGGFLNLSGYQEDALIGVHKVFAAVVYQYDLGREIPGGSGLPIYLGTSLEAGNVWGGEDRIRYNDLISSGSIYLGTDTSFGPAVLGMGFATSGEHSFFLSIGKNW”, the protein production entry is reported as “failed”. The value for “MAAPRVIMAAPRVIMAAITGVTPEVVNRTRPERRDLADMRAAMKTGFTAVASVIGVGVAGLAYGVIEAHRFVVRHVEVPVLKPGSSPLRILHMSDLHLLARQETKRRFIRQLDALNPDLVINTGDNFCSADSLQPLLDDMSGLLQRPGTFVFGSNDYLVPKFKNPFSYLLWGRSQQATEPVPELPHEELRQAFTSAGWLDLNDKSETLEVAGHRLTLRGTDDAHHDRDHYEEVAGPPDGEADLNIGVTHAPYLKILDAMVSDGMDIVFAGHTHGGQVCLPFTGAIITNCDLDTERAKGLSQHGRGGHTGWLHVSAGLGCSPFAPYRTFCRPEATLLTLVPRP” was “failed”; that for “MKQPTLAVIMTCHNRRNTTLACLQALYQQKNHFDVYLTDDGSTDGTAEFIKAEYPDVKIFQGDGNLFWVGGMHLAFGEAIKNQYDYYLWLNDDTFLEADALEKLLQVHENLAVEGYGQSIVVGSTQDPITKQATYGGAVKSKKWYSNKFEFLEPTSDVQKCDAMYGNCVLIPHSVTLKVGNIDTAFIHSLGDLDYALRARNLGLEHHHHHH” was “failed”; that for “MIDLAVLPIYLTAVIALLLLPGPDMLLIASSSMSYGRKVGLFASLGNATSGLILTLLAAMGVSTLIAMSPVALKVLHLLGGAYLLKMGWDCLRAEASSAPELDQKNKMASTYYQRALMSNLLNPKALVFFVMFLPQFVSSNITASSGEQMLALGLLLNVLGLLFNLLLVALAGTLGKGLLENEKFRTYQHKLMGLVFVILALWMLSSFVL” was “failed”. Then “MLSKSKTTKALLYSTAALSLFAASHVHADETSHWTARSVDQIKADISVNDNQQTYTVQYGDTLGSIVEAMGIDMNVLANIKEITNIDLIFPGTVLTTTYNADNQAVSVKVETPSSETSDTPVVAESNLTTNEVTVNGQSVVASDLSAPVETVSLTATQAPAKEESTQVVSEVTEAIASASDTPAYADTEQPVADAIDHVTSSAEETLAEEEAPATETSAQAETTEVAATSEAASEAASEVPAEQLAAASEAPESSEAPAEQPAAAPESSEAPAEQPAATSEAASEAPASVVPVATSEAVSEAPAVSEVPAEQLAAASEAPESSEVPAEQPAAAPESSEAPAEQPAATSEAAPATSEAPAEQLAATSEAASTPNTYPVGQCTWGAKSLAPWAGNNWGNAKDWIASAQAAGHSVGTTPVAGAIAVWPNDGGGYGHVAYVTSASGVNSIQVMESNYAGNMLIGNYRGTFDPTSSAHGGSVYYIYP”, with “failed”. Then “MVNVFYEEAGALKVGSILTDNTTSLQIESAHGKRSKIKAALVLLRFENPPMHGFMQQAQEKAADIDVNFLWECCEENREFTGQELAGDYFGHTPDPLETAAILILLSQNPIYFHKKGVGRFKAAPPEILQAALASREKKRLAEEKQAGYVQQLMAFELPDTFRPLLDDLLYKPDKNTIEWKALETACDATRLSVPRLLERCGAIPSTHDYHYNQFLYEHFPEGIDTDAYPADFHLLDPEDLPVAGVKAFSIDDATTTEIDDAFSVTPLNFGSFRIGIHIATPALGVAPHSLLDKFAAKRLSTVYLPGRKITMLPESVIQHFTLGEAHHRPVLSLYLEVADDFTVTRTFSRIETIEVSTNLRLDSLERQFNEITLRENQTDYPFAHELRLLWNFSCKMEKLRGKDQDINSEKIDYSFIIDQDRVSVYERRRGAPIDKVVSELMIFANAEWGKQLADAGYAGIYRSQGNGKVKMSLSPAPHQGLGVSQYAWSSSPMRRYVDLINQRQLIALVSGNPPPYTREDDTLLIAMRDFEMAYATYAEFQRGMERYWCLRWLLQENISTSGAIVIKENMIKLDRLPLIVRIPSLPELAPGTLVAVGVSQIDLIDRSLNASFLGKSEG”, with “failed”; and “MDNDKYLKGTTTVGVVCTDGIVLASEQRATMGHFIASKTAKKVYQIDDLVGMTTAGSVGDAQQLVRLVSVESQLYKMRRNESMTIKGIATLMSNFLNANRYYPMMVQLLIGGVDKNGPAIYSLDPMGGSIEETRISATGSGSPMAYGVLEDQYREDIAVKEGLDLAIRAIHNATKRDSASGENIDVVVITKEAFKRLDPEEVKSRRALLN”, with “failed”.

Consider “MEIILNSGGTFVILAAVVGFFMAWGIGANDVANAMGTSVGSKALTIKQAIIIAMIFEFAGAYLAGGEVTSTIRKGIIDASYFVDSPELLVYGMISALFAAATWLLIASALGWPVSTTHSIVGAIVGFAAVGVSTDAVEWGKVVGIVGSWIITPLISGIIAFIIFNSAQKLIFDTDKPLQQAKRWVPAYMFLAGFVLSLVTIKKGLKHIGLENVNLGFVNFEIKGAGGFYLAAIVAIIVAIIGKFFISRLKFDENLAKEAHYVNVEKVFAILMIVTACAMAFAHGSNDVANAIGPLAAVVSIVEHDGQIAAKSAIAWWILPLGGFGIVAGLALFGHKVIATIGQGITHLTPSRGFAAELAAASTVVIASGAGLPISTTQTLVGAVLGVGMARGIAAINLGVVRNIVVSWVITLPVGAGLSIVFFWIMQATFS”, for which the protein production entry is given as “failed”.

For the sequence “MELTALDKLEIMELAARFEMSLDKEDVENYLATFASDGALQGFWGIAKGKEELRQGFYAMLDTFARGKRHCSSNAIIQGNYDEATMESYLTVVNREDLNRAGSAFVKDQVRKINGKWYLILRQIEVDPSLPLLQQSQQAGANA”, the protein production result is given as “not failed”. For the sequence “MTLTPEAEIALFLRRLKWAAVIVGVLWVVSLLAPILTPFVLALLLAWLGDPLVDRIERAGRSRNVAVVLVFVLATLLFVLALMILVPMIERQIMTLIDALPQMRNWAIGTAIPWLEAKTGMQLMAWLDPERLIDWIRSHWEQAGGAAKTLFGYVSRSGFAMVTWVINLALLPILAFYFLRDWDRLVERVAAVIPRAYIGTASRLAQESNDVLGGFIRGQFLVMLALGAIYATGMSIIGLNLGLLIGIIAGLISFIPYLGATTGIVLALLAAIVQAQGLDLKLLIGVGVVFTVGQLLESYVLTPRIVGDKIGLHPVAVIFAVMAGGQLFGFLGMLLALPVAAVANVLLRYAHEQYTRSDLYAGERAGIVLRSTPERSVIIDPSKDADRL”, the protein production result was “failed”. Then “QVSKTYYVSKPGTLISMMTEEEANSITHLTLTGKLNAEDFRHLRDEFPSLKVLDISNAEIKMYSGKAGTYPNGKFYIYMANFVPAYAFSNVVNGVTKGKQTLEKVILSEKIKNIEDAAFKGCDNLKICQIRKKTAPNLLPEALADSVTAIFIPLGSSDAYRFKNRWEHFAFIEGEPLETTIQVGAMGKLEDEIMKAGLQPRDINFLTIEGKLDNADFKLIRDYMPNLVSLDISKTNATTIPDFTFAQKKYLLKIKLPHNLKTIGQRVFSNCGRLAGTLELPASVTAIEFGAFMGCDNLRYVLATGDKITTLGDELFGNGVPSKLIYKK”, with “not failed”. On to “MTAVSLGPSPARRDALARRIRLLVTATIGYNVVEAVVAITAGTIASSTALIGFGLDSVIEVSSAAAVAWQFSARDPAVREAREKRTLRIIAFSFFALALYVTVDSVRALTGTGEAGHSVPGIVLAGLSLAIMPFLSAAQRKAGREIGSASAVADSKQTLLCTYLSAVLLVGLLVNLLLGWTWADPVAALVISAIAVKEGRDAWQGRGCCAAPTWATPQAGADTDNCDCCS”, for which the protein production entry is on record as “failed”.

Source of the values: a protein production outcome set (Wang et al. 2014).
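Also: failed if final PepcDB status was selected cloned or expressed and not failed if soluble or beyond.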
